Assay results as given in article PMC8593620.

B1: RNF128 Iso1 (GRAIL): N48A (protein)
parent chain: MGPPPGAGVSCRGGCGFSRLLAWCFLLALSPQAPGSRGAEAVWTAYLNVSWRVPHTGVNRTVWELSEEGVYGQDSPLEPVAGVLVPPDGPGALNACNPHTNFTVPTVWGSTVQVSWLALIQRGGGCTFADKIHLAYERGASGAVIFNFPGTRNEVIPMSHPGAVDIVAIMIGNLKGTKILQSIQRGIQVTMVIEVGKKHGPWVNHYSIFFVSVSFFIITAATVGYFIFYSARRLRNARAQSRKQRQLKADAKKAIGRLQLRTLKQGDKEIGPDGDSCAVCIELYKPNDLVRILTCNHIFHKTCVDPWLLEHRTCPMCKCDILKALGIEVDVEDGSVSLQVPVSNEISNSASSHEEDNRSETASSGYASVQGTDEPPLEEHVQSTNESLQLVNHEANSVAVDVIPHVDNPTFEEDETPNQETAVREIKS
B2: RNF128 Iso1 (GRAIL): N101A (protein)
parent chain: MGPPPGAGVSCRGGCGFSRLLAWCFLLALSPQAPGSRGAEAVWTAYLNVSWRVPHTGVNRTVWELSEEGVYGQDSPLEPVAGVLVPPDGPGALNACNPHTNFTVPTVWGSTVQVSWLALIQRGGGCTFADKIHLAYERGASGAVIFNFPGTRNEVIPMSHPGAVDIVAIMIGNLKGTKILQSIQRGIQVTMVIEVGKKHGPWVNHYSIFFVSVSFFIITAATVGYFIFYSARRLRNARAQSRKQRQLKADAKKAIGRLQLRTLKQGDKEIGPDGDSCAVCIELYKPNDLVRILTCNHIFHKTCVDPWLLEHRTCPMCKCDILKALGIEVDVEDGSVSLQVPVSNEISNSASSHEEDNRSETASSGYASVQGTDEPPLEEHVQSTNESLQLVNHEANSVAVDVIPHVDNPTFEEDETPNQETAVREIKS
B3: RNF128 Iso1 (GRAIL): N59A (protein)
parent chain: MGPPPGAGVSCRGGCGFSRLLAWCFLLALSPQAPGSRGAEAVWTAYLNVSWRVPHTGVNRTVWELSEEGVYGQDSPLEPVAGVLVPPDGPGALNACNPHTNFTVPTVWGSTVQVSWLALIQRGGGCTFADKIHLAYERGASGAVIFNFPGTRNEVIPMSHPGAVDIVAIMIGNLKGTKILQSIQRGIQVTMVIEVGKKHGPWVNHYSIFFVSVSFFIITAATVGYFIFYSARRLRNARAQSRKQRQLKADAKKAIGRLQLRTLKQGDKEIGPDGDSCAVCIELYKPNDLVRILTCNHIFHKTCVDPWLLEHRTCPMCKCDILKALGIEVDVEDGSVSLQVPVSNEISNSASSHEEDNRSETASSGYASVQGTDEPPLEEHVQSTNESLQLVNHEANSVAVDVIPHVDNPTFEEDETPNQETAVREIKS
B4: RNF128 Iso1 (GRAIL): 3NA (protein)
parent chain: MGPPPGAGVSCRGGCGFSRLLAWCFLLALSPQAPGSRGAEAVWTAYLNVSWRVPHTGVNRTVWELSEEGVYGQDSPLEPVAGVLVPPDGPGALNACNPHTNFTVPTVWGSTVQVSWLALIQRGGGCTFADKIHLAYERGASGAVIFNFPGTRNEVIPMSHPGAVDIVAIMIGNLKGTKILQSIQRGIQVTMVIEVGKKHGPWVNHYSIFFVSVSFFIITAATVGYFIFYSARRLRNARAQSRKQRQLKADAKKAIGRLQLRTLKQGDKEIGPDGDSCAVCIELYKPNDLVRILTCNHIFHKTCVDPWLLEHRTCPMCKCDILKALGIEVDVEDGSVSLQVPVSNEISNSASSHEEDNRSETASSGYASVQGTDEPPLEEHVQSTNESLQLVNHEANSVAVDVIPHVDNPTFEEDETPNQETAVREIKS

Assay: immunoblot of steady-state levels, CpA cells
Details: glycan lost; control: wild-type Iso1

expression_or_secretion, decreases:
B1
B2
B3
B4
